The target in the assay is T1, HER2 Y772dupYVMA peptide on HLA-A*02:01 (human).
T1 peptide: VMAYVMAGV
Nature of the assay: multimer staining.

B1: HER2 (Y772dupYVMA)/HLA-A*02:01-specific TCR (TCR, V domains shown)
Valpha: AQTVTQSQPEMSVQEAETVTLSCTYDTSESDYYLFWYKQPPSRQMILVIRQEAYKQQNATENRFSVNFQKAAKSFSLKISDSQLGDAAMYFCAYWSVPGGSYIPTFGRGTSLIVHP
Vbeta: EAQVTQNPRYLITVTGKKLTVTCSQNMNHEYMSWYRQDPGLGLRQIYYSMNVEVTDKGDVPEGYKVSRKEKRNFPLILESPSPNQTSLYFCASSLRPGTSIPGELFFGEGSRLTVL
B1: the binding result is recorded as “recognises”.

These data come from patent US20260201034A1 (published 2026).
